The text below walks through data of patent US20100003258A1 (AVEO PHARMACEUTICALS, published 2010).

In test [1] the target is T1, recombinant human FGFR3 IIIb Fc fusion protein (human, UniProt P22607-2 23-377, limits assumed).
T1 construct: Bought reagent; the IIIb splice isoform is meant; also called rhFGFR3 IIIb Fc; hFGFR3 IIIb; not shown: Fc fragment (removable by Factor Xa, detected with anti-human IgG)
T1 sequence (looked up): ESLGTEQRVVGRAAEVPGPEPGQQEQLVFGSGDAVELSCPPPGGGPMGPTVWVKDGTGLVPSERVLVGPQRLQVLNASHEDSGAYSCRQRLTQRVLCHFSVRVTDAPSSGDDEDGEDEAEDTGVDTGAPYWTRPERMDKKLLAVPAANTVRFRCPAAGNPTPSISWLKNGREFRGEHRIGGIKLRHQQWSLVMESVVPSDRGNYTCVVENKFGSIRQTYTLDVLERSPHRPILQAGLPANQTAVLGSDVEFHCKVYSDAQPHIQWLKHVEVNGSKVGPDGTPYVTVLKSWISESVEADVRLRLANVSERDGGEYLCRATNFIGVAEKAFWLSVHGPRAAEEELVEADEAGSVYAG
The test is described as follows: SPR (Biacore T100), antibody captured on anti-mouse Ig, rhFGFR3 IIIb Fc as analyte, 37 C. The method, then:
(§1) The binding affinities and kinetics of interaction of the monoclonal antibodies (15D8, 27H2, 2G4, and 4E7(7D12)) produced in Example 1 against recombinant human FGFR3 (IIIb and IIIc isoforms) Fc fusion protein (rhFGFR3 IIIb Fc or rhFGFR3 IIIc Fc) were measured by surface plasmon resonance using a Biacore™ T100 (Biacore) instrument.
(§2) Rabbit anti-mouse immunoglobulins (Biacore, Catalog No. BR-1005-14) were immobilized on carboxymethylated dextran CM4 sensor chips (Biacore, Catalog No. BR-1005-34) by amine coupling (Biacore, Catalog No. BR-1000-50) using a standard coupling protocol according to manufacturer's instructions.
(§3) The antibodies were captured in an individual flow cell at a flow rate of 10 μl/min. Injection time was varied for each antibody to yield approximately 40-50 RU of antibody captured for each cycle. Buffer or rhFGFR3 IIIb Fc (R&D Systems, Catalog No. 1264-FR-050) or rhFGFR3 IIIc Fc (R&D Systems, Catalog No. 766-FR-050) diluted in running buffer was injected sequentially over a reference surface (no antibody captured) and the active surface (antibody to be tested) for 300 sec at 60 μl/min. The dissociation phase was monitored for 30 minutes. The surface was then regenerated with two 60-seconds injection of 10 mM Glycine-HCl, pH 1.7 (made from Glycine pH 1.5 (Biacore, Catalog No. BR-1003-54) and pH 2.0 (Biacore, Catalog No. BR-1003-55)) at a flow rate of 60 μl/min. rhFGFR3 Fc concentrations tested were 0.62 nM to 40 nM.
(In SPR one partner is held on a chip, and binding of the other changes the refractive index at the surface.)

For test [2], the target named is T2, recombinant human FGFR3 IIIc Fc fusion protein (human, UniProt P22607 23-375).
T2 construct: Bought reagent; also called rhFGFR3 IIIc Fc; not shown: Fc fragment (removable by Factor Xa)
T2 sequence (looked up): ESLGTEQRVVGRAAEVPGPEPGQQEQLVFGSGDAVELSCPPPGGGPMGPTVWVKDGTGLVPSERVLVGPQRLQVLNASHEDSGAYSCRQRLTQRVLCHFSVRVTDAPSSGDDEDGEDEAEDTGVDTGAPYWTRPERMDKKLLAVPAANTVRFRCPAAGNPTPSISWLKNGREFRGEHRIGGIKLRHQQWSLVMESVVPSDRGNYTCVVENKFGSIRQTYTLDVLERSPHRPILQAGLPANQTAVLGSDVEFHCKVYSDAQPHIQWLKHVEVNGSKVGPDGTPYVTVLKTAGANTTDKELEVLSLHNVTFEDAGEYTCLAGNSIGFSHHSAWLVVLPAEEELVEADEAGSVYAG
Briefly: SPR (Biacore T100), antibody captured on anti-mouse Ig, rhFGFR3 IIIc Fc as analyte, 37 C. The method, then: as §1, §2, §3

Test [3] addresses T1, recombinant human FGFR3 IIIb Fc fusion …. Briefly: ECL competition assay: inhibition of rhFGFR3 IIIb Fc binding to coated FGF1 (competitor FGF1). The method, then:
(§4) The antibodies were tested by ECL (Electrochemiluminescence) assay for inhibition of hFGFR3 IIIB binding to FGF-1. […] The plates then were washed 3 times with PBS and blocked with 200 μl of PBS containing 5% BSA (Sera Care Life Sciences, Catalog No. AP-4510-80) and 5 μg/mL heparin (Sigma, Catalog No. H4784) for 1 hour at room temperature. The antibodies (concentration range: 0.029-30 μg/mL) were incubated for 1 hour at room temperature with 1.7 μg/mL rhFGFR3 IIIb Fc (R&D Systems, Catalog No. 1264-FR-050) and 5 μg/mL heparin. After washing the plates 3 times with PBS, 25 μl of the antibody-receptor mixture was added to the plates for another hour at room temperature with agitation. The plates were washed three times with PBS and incubated with 25 μl of 1 μg/mL ST-anti-human IgG antibody (Meso Scale Discovery, Catalog No. R32AJ-1) for 1 hour at room temperature with agitation. The plates then were washed 3 times with PBS, and 150 μl of 1× read buffer (Meso Scale Discovery, Catalog No. R92TC-1) was added to each well before the plates were analyzed on a Sector Imager 2400 (Meso Scale Discovery) instrument.

The target is the same in test [4]. The test is described as follows: ECL competition assay: inhibition of rhFGFR3 IIIb Fc binding to coated FGF1 (competitor FGF1); 15D8 IgG1, not Fab; average of n = 3. The method, then: as §4

B1: anti-FGFR3 monoclonal antibody 15D8 (antibody, mouse IgG1, kappa)
heavy: EIQLQQSGPELVKPGASVKVSCKASGYAFTSYNMYWVKQSHGKSLEWIGYIDPYNGGTSYNQKFKGKATLTVDKSSSTAYMHLNSLTSEDSAVYYCAREGGNYEAWFAYWGQGTLVTVSAAKTTPPSVYPLAPGSAAQTNSMVTLGCLVKGYFPEPVTVTWNSGSLSSGVHTFPAVLQSDLYTLSSSVTVPSSTWPSETVTCNVAHPASSTKVDKKIVPRDCGCKPCICTVPEVSSVFIFPPKPKDVLTITLTPKVTCVVVDISKDDPEVQFSWFVDDVEVHTAQTQPREEQFNSTFRSVSELPIMHQDWLNGKEFKCRVNSAAFPAPIEKTISKTKGRPKAPQVYTIPPPKEQMAKDKVSLTCMITDFFPEDITVEWQWNGQPAENYKNTQPIMDTDGSYFVYSKLNVQKSNWEAGNTFTCSVLHEGLHNHHTEKSLSHSPGK
light: QIVLTQSPALMSASPGEKVTMTCSASSSVSYMYWYQQKPRSSPKPWIYLTSYLASGVPARFSGSGSGTSYSLTISSMEAEDAATYYCQQWSSYPLTFGAGTKLELKRADAAPTVSIFPPSSEQLTSGGASVVCFLNNFYPKDINVKWKIDGSERQNGVLNSWTDQDSKDSTYSMSSTLTLTKDEYERHNSYTCEATHKTSTSPIVKSFNRNEC
notes: also called 15D8 IgG1; murine antibody 15D8
Broadly, the Kd is the concentration at which binding is half-saturated. One may read the koff as the rate constant with which the complex falls apart. A word on the kon: it is a measure of how fast the partners come together. As usually defined, the IC50 is the midpoint of a concentration-inhibition curve. Turning to B1, in test [1], the Kd came to 3.2 nM, the koff came out at 0.0003 s⁻¹ and the kon is 94000 M⁻¹ s⁻¹. Moreover, in test [2], the Kd was 1.8 nM, the koff turned out to be 0.00018 s⁻¹ and the kon came to 120000 M⁻¹ s⁻¹. Further, the “Maximum Neutralization (%)” value in test [3] turned out to be 80.5%. For the same molecule, the IC50 in test [4] was 15.4 nM.
